Molecular target: serotonin receptor 1b (5-HT1b), CFP- or YFP-tagged, for FRET (human) (UniProt P28222)
Sequence of UniProt P28222 (P28222 whole entry): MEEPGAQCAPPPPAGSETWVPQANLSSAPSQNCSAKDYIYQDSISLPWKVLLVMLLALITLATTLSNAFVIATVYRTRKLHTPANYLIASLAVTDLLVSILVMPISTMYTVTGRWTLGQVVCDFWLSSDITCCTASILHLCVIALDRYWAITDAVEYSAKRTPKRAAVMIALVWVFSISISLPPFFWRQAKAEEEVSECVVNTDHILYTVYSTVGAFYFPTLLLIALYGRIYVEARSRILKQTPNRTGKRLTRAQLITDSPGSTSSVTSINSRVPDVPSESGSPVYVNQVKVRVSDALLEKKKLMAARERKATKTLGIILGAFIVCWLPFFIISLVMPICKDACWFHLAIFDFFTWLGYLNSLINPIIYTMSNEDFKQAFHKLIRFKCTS

“βTAAR1 (TAAR1 with the first nine amino acids of the β2-adrenoreceptor at its N-terminus), CFP- or YFP-tagged, for FRET (from UniProt P07550 1-9)” gave a Gi/o signaling: reduction of forskolin-induced cAMP (AlphaScreen) by 10 μM 5-HT in HEK293 co-expressing TAAR1 and 5-HT1b (50% for 5-HT1b alone) of 40%.

From publication PMC5857711
